Measured values: patent publication US20100197575A1, “SOLUBLE INTERLEUKIN-20 RECEPTOR” (ZymoGenetics, Inc., published 2010)
Blank lines part the entries; values can stand above or below the molecule they belong to.

Columns and labels:
[1] = target: IL-20RA/IL-20RB heterodimeric receptor (human)
[2] = target: IL-20RA/IL-20RB heterodimeric receptor (human); remark: listed apart in the source
[3] = target: IL-20RA/IL-20RB heterodimeric receptor (human); remark: listed apart in the source
[4] = target: IL-20RA/IL-20RB heterodimeric receptor (human); remark: listed apart in the source
[5] = target: IL-20RA/IL-20RB heterodimeric receptor (human); remark: listed apart in the source
125I-labeled IL-20 = target: T1, 125I-labeled IL-20 (Homo sapiens (Human), UniProt Q9NYY1, 125I-labeled); experiment: radiolabeled ligand binding to BHK cells stably transfected with IL-20RA and IL-20RB
T1 sequence: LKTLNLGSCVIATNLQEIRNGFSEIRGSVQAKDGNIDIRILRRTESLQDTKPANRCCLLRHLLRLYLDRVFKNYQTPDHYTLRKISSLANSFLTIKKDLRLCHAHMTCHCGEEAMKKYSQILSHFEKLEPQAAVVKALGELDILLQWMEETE
Procedure: The specificity and affinity of IL-20 for its receptor was determined using BHK cells stably transfected with IL-20RA, IL-20RB or both receptor subunits. […] Binding of ¹²⁵I-labeled IL-20 was eliminated in the presence of 100-fold excess of unlabeled IL-20 but not with 100-fold excess of the unrelated cytokine, IL-21.

half maximal response, proliferation of BaF3 cells co-transfected with IL-20RA and IL-20RB [1]: 3.4 pM
proliferation of BaF3 cells co-transfected with IL-20RA and IL-20RB [1]: 1.1 pM
half maximal response, SRE/STAT luciferase reporter in HaCaT cells [2]: 2.3 nM
half-maximal response, STAT-luciferase in BHK cells transfected with both receptor subunits [3]: 5.7 pM
half-maximal IL-20 concentration, STAT3 nuclear translocation in HaCaT cells [4]: 7 nM
half-maximal response, luciferase reporter in HaCaT cells, IL-20 in combination with a submaximal dose of IL-1beta [5]: 0.5 nM
Molecule: Interleukin-20 (IL-20) (from UniProt Q9NYY1) (ligand)

Kd (125I-labeled IL-20): ~1.5 nM
B1: IL-20RA/IL-20RB heterodimeric receptor (receptor)
chain 1: VPCVSGGLPKPANITFLSINMKNVLQWTPPEGLQGVKVTYTVQYFIYGQKKWLNKSECRNINRTYCDLSAETSDYEHQYYAKVKAIWGTKCSKWAESGRFYPFLETQIGPPEVALTTDEKSISVVLTAPEKWKRNPEDLPVSMQQIYSNLKYNVSVLNTKSNRTWSQCVTNHTLVLTWLEPNTLYCVHVESFVPGPPRRAQPSEKQCARTLKDQSSEFKAKIIFWYVLPISITVFLFSVMGYSIYRYIHVGKEKHPANLILIYGNEFDKRFFVPAEKIVINFITLNISDDSKISHQDMSLLGKSSDVSSLNDPQPSGNLRPPQEEEEVKHLGYASHLMEIFCDSEENTEGTSFTQQESLSRTIPPDKTVIEYEYDVRTTDICAGPEEQELSLQEEVSTQGTLLESQAALAVLGPQTLQYSYTPQLQDLDPLAQEHTDSEEGPEEEPSTTLVDWDPQTGRLCIPSLSSFDQDSEGCEPSEGDGLGEEGLLSRLYEEPAPDRPPGENETYLMQFMEEWGLYVQMEN
chain 2: DEVAILPAPQNLSVLSTNMKHLLMWSPVIAPGETVYYSVEYQGEYESLYTSHIWIPSSWCSLTEGPECDVTDDITATVPYNLRVRATLGSQTSAWSILKHPFNRNSTILTRPGMEITKDGFHLVIELEDLGPQFEFLVAYWRREPGAEEHVKMVRSGGIPVHLETMEPGAAYCVKAQTFVKAIGRYSAFSQTECVEVQGEAIPLVLALFAFVGFMLILVVVPLFVWKMGRLLQYSCCPVVVLPDTLKITNSPQKLISCRREEVDACATAVMSPEELLRAWIS
